Test results published in patent US20250296960A1, “PEPTIDE COMPOSITIONS AND METHODS OF USE THEREOF” (priority 2022, published 2025).
Numbered stars: 1 amine (or outer) side, 2 acyl side, 3 side chain; on linkers, the order of the positions; unused ones are H or OH. Square brackets hold non-standard residues; d marks the D form. Side chains are listed from the residue outwards. Ends that are not written are not given here. C18 = C18 fatty acid (C16-C22 fatty acids conjugated via γGlu/8-amino-3,6-dioxaoctanoic acid spacers); γGlu = O=C(O)[C@H](CCC(=O)[*:2])N[*:1]; AEEA = NCCOCCOCC(=O)O; Aib = CC(C)(N)C(=O)O; MAL = maleimide

T1: human glucose-dependent insulinotropic polypeptide receptor (GIPR), expressed on CHO-K1 cells (human, UniProt P48546 22-466)
T1 sequence (looked up): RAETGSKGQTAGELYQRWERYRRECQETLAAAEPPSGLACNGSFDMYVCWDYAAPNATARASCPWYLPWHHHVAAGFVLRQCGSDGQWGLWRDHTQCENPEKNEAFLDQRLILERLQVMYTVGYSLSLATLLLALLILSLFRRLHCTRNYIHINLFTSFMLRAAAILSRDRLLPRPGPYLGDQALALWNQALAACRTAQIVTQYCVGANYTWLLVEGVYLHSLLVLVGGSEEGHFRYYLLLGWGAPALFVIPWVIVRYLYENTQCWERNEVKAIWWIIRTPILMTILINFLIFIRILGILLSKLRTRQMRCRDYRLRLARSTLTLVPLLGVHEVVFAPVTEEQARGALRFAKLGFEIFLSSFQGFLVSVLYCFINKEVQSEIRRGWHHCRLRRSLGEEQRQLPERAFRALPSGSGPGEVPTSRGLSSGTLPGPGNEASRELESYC


What follows are binders tested against T2, human GLP-1 receptor (GLP-1R), expressed on CHO-K1 cells (human, UniProt P43220 24-463) (assay: cell-based or functional assay).

Point of comparison: H[Aib]QGTFTSDHSKYLDGAWAADFVMWLLDGGPSSGAPPPSC-NH2 [Peptide No. 57 (with C-terminal cysteine)], “Percentage change in EC50 relative to GLP-1 at human GLP-1R (%)” value 1%. Against it:
- H[Aib]QGTFTSDHSWYLDKWTAHDFVQWLINGGPSSGAPPPSC-NH2 [Peptide No. 18 (with C-terminal cysteine)] — higher, 40%
- H[Aib]QGTFTSDWSKYLDQQMAQDFVDWLINGGPSSGAPPPSC-NH2 [Peptide No. 12 (with C-terminal cysteine)] — higher, 303%

Biological target: T2, human GLP-1 receptor (GLP-1R), …
Experiment: cell-based or functional assay
Remark: another data set of the same source

Point of comparison: Y[Aib]QGTFTSDYSKYLDYMMARDFVQWLIEGGPSSGAPPPSC-NH2 (not fully specified (residue 40)) [Peptide No. 5-1A], “Activity relative to GLP-1 (%)” value 100%. Against it:
- H[Aib]QGTFTSDYSKLLDYMMQRDFVQWLLEGGPSSGAPPPSC([MAL-AEEA-AEEA-γGlu-C18])-NH2 [Peptide No. 5-5A] — the same, 100%
- Y[Aib]QGTFTSDYSKYLDYMMQRDFVQWLIEGGPSSGAPPPSC-NH2 (not fully specified (residue 40)) [Peptide No. 5-2A] — the same, 100%

Each binder was assayed against T1, human glucose-dependent insulinotropic … (assay: cell-based or functional assay).

Point of comparison: Y[Aib]QGTFTSDYSKYLDYMMQRDFVQWLIEGGPSSGAPPPSC-NH2 (not fully specified (residue 40)) [Peptide No. 5-2A], “Activity relative to GLP-1 (%)” value 2%. Against it:
- H[Aib]QGTFTSDYSKLLDYMMQRDFVQWLLEGGPSSGAPPPSC([MAL-AEEA-AEEA-γGlu-C18])-NH2 [Peptide No. 5-5A] — the same, 2%
- Y[Aib]QGTFTSDYSKYLDYMMARDFVQWLIEGGPSSGAPPPSC-NH2 (not fully specified (residue 40)) [Peptide No. 5-1A] — lower, 1%

What follows are binders tested against T3, human glucagon receptor (GCGR), expressed on CHO-K1 cells (human, UniProt P47871 26-477) (assay: cell-based or functional assay).
T3 sequence (P47871 26-477): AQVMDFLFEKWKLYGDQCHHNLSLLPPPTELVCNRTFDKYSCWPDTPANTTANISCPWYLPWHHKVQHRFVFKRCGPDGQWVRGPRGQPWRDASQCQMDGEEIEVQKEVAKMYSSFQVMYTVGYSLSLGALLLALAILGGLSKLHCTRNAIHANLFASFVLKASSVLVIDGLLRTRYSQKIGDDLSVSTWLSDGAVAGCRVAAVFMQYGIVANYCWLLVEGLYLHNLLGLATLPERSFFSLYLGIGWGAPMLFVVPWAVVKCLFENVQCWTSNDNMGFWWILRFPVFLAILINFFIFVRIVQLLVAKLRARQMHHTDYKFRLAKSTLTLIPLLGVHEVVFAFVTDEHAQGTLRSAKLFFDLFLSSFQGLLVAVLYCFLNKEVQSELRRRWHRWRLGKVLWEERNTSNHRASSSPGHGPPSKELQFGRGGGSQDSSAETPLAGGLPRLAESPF

Point of comparison: Y[Aib]QGTFTSDYSKYLDYMMARDFVQWLIEGGPSSGAPPPSC-NH2 (not fully specified (residue 40)) [Peptide No. 5-1A], “Activity relative to GLP-1 (%)” value 13%. Against it:
- H[Aib]QGTFTSDYSKLLDYMMQRDFVQWLLEGGPSSGAPPPSC([MAL-AEEA-AEEA-γGlu-C18])-NH2 [Peptide No. 5-5A] — lower, 0%
- Y[Aib]QGTFTSDYSKYLDYMMQRDFVQWLIEGGPSSGAPPPSC-NH2 (not fully specified (residue 40)) [Peptide No. 5-2A] — lower, 0%

Biological target: T2, human GLP-1 receptor (GLP-1R), …
Experiment: cell-based or functional assay
Remark: another data set of the same source

Point of comparison: H[Aib]QGTFTSDYSKLLDYMMQRDFVQWLLEGGPSSGAPPPSC([MAL-AEEA-AEEA-γGlu-C18])-NH2 [Peptide No. 5-5A], “EC50 (nM), cAMP assay” value 0.0747 nM. Against it:
- Y[Aib]QGTFTSDYSKYLDYMMARDFVQWLIEGGPSSGAPPPSC-NH2 (not fully specified (residue 40)) [Peptide No. 5-1A] — 3.6-fold higher, 0.269 nM
- Y[Aib]QGTFTSDYSKYLDYMMQRDFVQWLIEGGPSSGAPPPSC-NH2 (not fully specified (residue 40)) [Peptide No. 5-2A] — 4.7-fold higher, 0.348 nM

Biological target: T1, human glucose-dependent insulinotropic …
Experiment: cell-based or functional assay
Remark: another data set of the same source

Point of comparison: H[Aib]QGTFTSDYSKLLDYMMQRDFVQWLLEGGPSSGAPPPSC([MAL-AEEA-AEEA-γGlu-C18])-NH2 [Peptide No. 5-5A], “EC50 (nM), cAMP assay” value 5.17 nM. Against it:
- Y[Aib]QGTFTSDYSKYLDYMMARDFVQWLIEGGPSSGAPPPSC-NH2 (not fully specified (residue 40)) [Peptide No. 5-1A] — 10-fold higher, 53.9 nM
- Y[Aib]QGTFTSDYSKYLDYMMQRDFVQWLIEGGPSSGAPPPSC-NH2 (not fully specified (residue 40)) [Peptide No. 5-2A] — 4.8-fold higher, 24.7 nM

Biological target: T3, human glucagon receptor (GCGR), …
Experiment: cell-based or functional assay
Remark: another data set of the same source

Point of comparison: H[Aib]QGTFTSDYSKLLDYMMQRDFVQWLLEGGPSSGAPPPSC([MAL-AEEA-AEEA-γGlu-C18])-NH2 [Peptide No. 5-5A], “EC50 (nM), cAMP assay” value 9.43 nM. Against it:
- Y[Aib]QGTFTSDYSKYLDYMMARDFVQWLIEGGPSSGAPPPSC-NH2 (not fully specified (residue 40)) [Peptide No. 5-1A] — 16-fold lower, 0.576 nM
- Y[Aib]QGTFTSDYSKYLDYMMQRDFVQWLIEGGPSSGAPPPSC-NH2 (not fully specified (residue 40)) [Peptide No. 5-2A] — 2.4-fold higher, 23 nM

Biological target: T2, human GLP-1 receptor (GLP-1R), …
Experiment: cell-based or functional assay
Remark: another data set of the same source

Point of comparison: H[Aib]QGTFTSDYSKLLDYMMQRDFVQWLLEGGPSSGAPPPSC([MAL-AEEA-AEEA-γGlu-C18])-NH2 [Peptide No. 5-5A], “Relative % to native ligand” value 673%. Against it:
- Y[Aib]QGTFTSDYSKYLDYMMARDFVQWLIEGGPSSGAPPPSC-NH2 (not fully specified (residue 40)) [Peptide No. 5-1A] — lower, 187%
- Y[Aib]QGTFTSDYSKYLDYMMQRDFVQWLIEGGPSSGAPPPSC-NH2 (not fully specified (residue 40)) [Peptide No. 5-2A] — lower, 145%

Biological target: T1, human glucose-dependent insulinotropic …
Experiment: cell-based or functional assay
Remark: another data set of the same source

Point of comparison: H[Aib]QGTFTSDYSKLLDYMMQRDFVQWLLEGGPSSGAPPPSC([MAL-AEEA-AEEA-γGlu-C18])-NH2 [Peptide No. 5-5A], “Relative % to native ligand” value 14%. Against it:
- Y[Aib]QGTFTSDYSKYLDYMMARDFVQWLIEGGPSSGAPPPSC-NH2 (not fully specified (residue 40)) [Peptide No. 5-1A] — lower, 1%
- Y[Aib]QGTFTSDYSKYLDYMMQRDFVQWLIEGGPSSGAPPPSC-NH2 (not fully specified (residue 40)) [Peptide No. 5-2A] — lower, 3%

Biological target: T3, human glucagon receptor (GCGR), …
Experiment: cell-based or functional assay
Remark: another data set of the same source

Point of comparison: Y[Aib]QGTFTSDYSKYLDYMMQRDFVQWLIEGGPSSGAPPPSC-NH2 (not fully specified (residue 40)) [Peptide No. 5-2A], “Relative % to native ligand” value 1%. Against it:
- H[Aib]QGTFTSDYSKLLDYMMQRDFVQWLLEGGPSSGAPPPSC([MAL-AEEA-AEEA-γGlu-C18])-NH2 [Peptide No. 5-5A] — the same, 1%
- Y[Aib]QGTFTSDYSKYLDYMMARDFVQWLIEGGPSSGAPPPSC-NH2 (not fully specified (residue 40)) [Peptide No. 5-1A] — higher, 24%

Biological target: T3, human glucagon receptor (GCGR), …
Experiment: cell-based or functional assay
Remark: another data set of the same source

Point of comparison: H[Aib]QGTFTSDWSKYLDQQMAQDFVDWLINGGPSSGAPPPSC-NH2 [Peptide No. 12 (with C-terminal cysteine)], “Percentage change in EC50 relative to GCG at human GCGR (%)” value 1200%. Against it:
- H[Aib]QGTFTSDHSWYLDKWTAHDFVQWLINGGPSSGAPPPSC-NH2 [Peptide No. 18 (with C-terminal cysteine)] — lower, 1%
- H[Aib]QGTFTSDHSKYLDGAWAADFVMWLLDGGPSSGAPPPSC-NH2 [Peptide No. 57 (with C-terminal cysteine)] — lower, 1%

Biological target: T1, human glucose-dependent insulinotropic …
Experiment: cell-based or functional assay
Remark: another data set of the same source

Point of comparison: H[Aib]QGTFTSDWSKYLDQQMAQDFVDWLINGGPSSGAPPPSC-NH2 [Peptide No. 12 (with C-terminal cysteine)], “Percentage change in EC50 relative to GIP at human GIPR (%)” value 4%. Against it:
- H[Aib]QGTFTSDHSWYLDKWTAHDFVQWLINGGPSSGAPPPSC-NH2 [Peptide No. 18 (with C-terminal cysteine)] — lower, 0%
- H[Aib]QGTFTSDHSKYLDGAWAADFVMWLLDGGPSSGAPPPSC-NH2 [Peptide No. 57 (with C-terminal cysteine)] — lower, 0%

Biological target: T2, human GLP-1 receptor (GLP-1R), …
Experiment: cell-based or functional assay
Remark: another data set of the same source

Point of comparison: Y[Aib]QGTFTSDYSKYLDYMMQRDFVQWLIEGGPSSGAPPPSC-NH2 (not fully specified (residue 40)) [Peptide No. 5-2A], “Relative % to non-lipidated peptide” value 29%. Against it:
- H[Aib]QGTFTSDYSKLLDYMMQRDFVQWLLEGGPSSGAPPPSC([MAL-AEEA-AEEA-γGlu-C18])-NH2 [Peptide No. 5-5A] — higher, 40%
- Y[Aib]QGTFTSDYSKYLDYMMARDFVQWLIEGGPSSGAPPPSC-NH2 (not fully specified (residue 40)) [Peptide No. 5-1A] — higher, 159%

Biological target: T1, human glucose-dependent insulinotropic …
Experiment: cell-based or functional assay
Remark: another data set of the same source

Point of comparison: H[Aib]QGTFTSDYSKLLDYMMQRDFVQWLLEGGPSSGAPPPSC([MAL-AEEA-AEEA-γGlu-C18])-NH2 [Peptide No. 5-5A], “Relative % to non-lipidated peptide” value 3%. Against it:
- Y[Aib]QGTFTSDYSKYLDYMMARDFVQWLIEGGPSSGAPPPSC-NH2 (not fully specified (residue 40)) [Peptide No. 5-1A] — higher, 11%
- Y[Aib]QGTFTSDYSKYLDYMMQRDFVQWLIEGGPSSGAPPPSC-NH2 (not fully specified (residue 40)) [Peptide No. 5-2A] — lower, 0.4%

Biological target: T3, human glucagon receptor (GCGR), …
Experiment: cell-based or functional assay
Remark: another data set of the same source

Point of comparison: Y[Aib]QGTFTSDYSKYLDYMMARDFVQWLIEGGPSSGAPPPSC-NH2 (not fully specified (residue 40)) [Peptide No. 5-1A], “Relative % to non-lipidated peptide” value 0%. Against it:
- H[Aib]QGTFTSDYSKLLDYMMQRDFVQWLLEGGPSSGAPPPSC([MAL-AEEA-AEEA-γGlu-C18])-NH2 [Peptide No. 5-5A] — higher, 1%
- Y[Aib]QGTFTSDYSKYLDYMMQRDFVQWLIEGGPSSGAPPPSC-NH2 (not fully specified (residue 40)) [Peptide No. 5-2A] — higher, 1%

Biological target: T2, human GLP-1 receptor (GLP-1R), …
Experiment: cell-based or functional assay
Remark: another data set of the same source

Point of comparison: Y[Aib]QGTFTSDYSKYLDYMMQRDFVQWLIEGGPSSGAPPPSC-NH2 (not fully specified (residue 40)) [Peptide No. 5-2A], “Ratio vs. GLP-1R” value 100. Against it:
- H[Aib]QGTFTSDYSKLLDYMMQRDFVQWLLEGGPSSGAPPPSC([MAL-AEEA-AEEA-γGlu-C18])-NH2 [Peptide No. 5-5A] — the same, 100
- Y[Aib]QGTFTSDYSKYLDYMMARDFVQWLIEGGPSSGAPPPSC-NH2 (not fully specified (residue 40)) [Peptide No. 5-1A] — the same, 100

Biological target: T1, human glucose-dependent insulinotropic …
Experiment: cell-based or functional assay
Remark: another data set of the same source

Point of comparison: Y[Aib]QGTFTSDYSKYLDYMMQRDFVQWLIEGGPSSGAPPPSC-NH2 (not fully specified (residue 40)) [Peptide No. 5-2A], “Ratio vs. GLP-1R” value 2. Against it:
- H[Aib]QGTFTSDYSKLLDYMMQRDFVQWLLEGGPSSGAPPPSC([MAL-AEEA-AEEA-γGlu-C18])-NH2 [Peptide No. 5-5A] — the same, 2
- Y[Aib]QGTFTSDYSKYLDYMMARDFVQWLIEGGPSSGAPPPSC-NH2 (not fully specified (residue 40)) [Peptide No. 5-1A] — lower, 1

Biological target: T3, human glucagon receptor (GCGR), …
Experiment: cell-based or functional assay
Remark: another data set of the same source

Point of comparison: H[Aib]QGTFTSDYSKLLDYMMQRDFVQWLLEGGPSSGAPPPSC([MAL-AEEA-AEEA-γGlu-C18])-NH2 [Peptide No. 5-5A], “Ratio vs. GLP-1R” value 0. Against it:
- Y[Aib]QGTFTSDYSKYLDYMMARDFVQWLIEGGPSSGAPPPSC-NH2 (not fully specified (residue 40)) [Peptide No. 5-1A] — higher, 13
- Y[Aib]QGTFTSDYSKYLDYMMQRDFVQWLIEGGPSSGAPPPSC-NH2 (not fully specified (residue 40)) [Peptide No. 5-2A] — the same, 0
